Reference: US20090239765A1, “GENES WHOSE EXPRESSION IS INCREASED IN RESPONSE TO STIMULATION BY CORTICOTROPIN-RELEASING HORMONE” (priority 2003, published 2009)

Assays:
[1] = molecular target: T1, CRH-R1 (Mus musculus, UniProt P35347); assay: c-fos mRNA levels by quantitative RT-PCR in AtT-20 cells; type: cell-based, murine
T1 construct: host or cells: AtT-20 (murine pituitary corticotroph adenoma cells)
T1 sequence (P35347 24-415): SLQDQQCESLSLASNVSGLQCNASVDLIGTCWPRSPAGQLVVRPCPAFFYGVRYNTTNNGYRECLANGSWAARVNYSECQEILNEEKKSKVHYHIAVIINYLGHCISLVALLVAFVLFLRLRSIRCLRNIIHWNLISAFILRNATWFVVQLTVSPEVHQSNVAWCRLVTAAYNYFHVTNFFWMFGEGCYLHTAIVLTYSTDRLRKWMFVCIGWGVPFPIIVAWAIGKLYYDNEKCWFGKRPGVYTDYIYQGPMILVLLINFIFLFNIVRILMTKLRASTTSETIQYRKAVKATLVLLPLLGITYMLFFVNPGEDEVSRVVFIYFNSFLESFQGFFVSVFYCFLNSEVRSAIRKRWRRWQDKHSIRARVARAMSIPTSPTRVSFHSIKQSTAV
Experimental: Cell culture and sample preparation—AtT-20 cells were purchased from ATCC and were maintained at 37° C. in 5% CO2 in humidified air in Dulbecco's modified Eagle's medium (Invitrogen Life Technologies) containing 10% fetal bovine serum, 50% horse serum and 4.5 g/L D-glucose. For experiments cells were seeded in 25 cm^2 flasks. The medium was replaced 48 h later and cells were treated with either 0.1% DMSO, 1 μM CRH (Sigma) in DMSO, 1 μM R121919 in DMSO or 1 μM CRH+1 μM R121919 in DMSO for 0, 0.5, 1, 2, 4, 8 and 24 h in fresh medium. The incubation was stopped by aspirating the incubation medium and adding 3 ml Trizol (Invitrogen Life Technologies) for lysis of the cells. Total RNA was extracted using Trizol according to the instructions of the manufacturer. […]
Quantitative RT-PCR—Microarray data were confirmed using real time PCR analysis. […] Quantitative PCR was performed on a ABIPrism 7700 cycler (Applied Biosystems) using a Taqman PCR kit. […] A linear regression line calculated from the standard curves allowed the determination of transcript levels in RNA samples from the different time points.
Transcriptional response to CRH was studied in the CRH-R1-expressing murine AtT-pituitary corticotroph-derived adenoma cell line. Whereas CRH-R1 was readily detectable both by real time quantitative RT-PCR (RTq) and western blot, CRH-R2 expression could not be discerned in AtT-20 cells. […]

[2] = molecular target: T1, CRH-R1; assay: Microarray transcriptional response to CRH in AtT-20 cells (Murine Genome U74Av2 arrays); type: cell-based
Experimental: (§1) Cell culture and sample preparation—AtT-20 cells were purchased from ATCC and were maintained at 37° C. in 5% CO2 in humidified air in Dulbecco's modified Eagle's medium (Invitrogen Life Technologies) containing 10% fetal bovine serum, 50% horse serum and 4.5 g/L D-glucose. For experiments cells were seeded in 25 cm^2 flasks. The medium was replaced 48 h later and cells were treated with either 0.1% DMSO, 1 μM CRH (Sigma) in DMSO, 1 μM R121919 in DMSO or 1 μM CRH+1 μM R121919 in DMSO for 0, 0.5, 1, 2, 4, 8 and 24 h in fresh medium. The incubation was stopped by aspirating the incubation medium and adding 3 ml Trizol (Invitrogen Life Technologies) for lysis of the cells. Total RNA was extracted using Trizol according to the instructions of the manufacturer. 100 μg total RNA was further purificied using Rneasy kit (Qiagen) with DNAseI treatment on column.
Microarray hybridization—cRNA was prepared as follows. Reverse transcription was performed on 10 μg of total RNA for 1 h at 42° C. using a T7-oligo(dT)24-primer and SuperscriptII RT (Invitrogen Life Technologies). Second strand cDNA synthesis was done for 2 h at 16° C. using Escherichia coli DNA Polymerase I, DNA ligase and RNAseH (Invitrogen Life Technologies). After phenol-chloroform extraction using phase-lock gel (Eppendorf) in vitro transcription was performed for 6 h at 37° C. using the Bioarray high-yield RNA transcript labeling kit with Biotin labeled ribonucleotides (Enzo Diagnostics). cRNA samples were purified on Qiagen Rneasy columns followed by fragmentation for 35 min at 95° C. cRNA yields were between 50 and 100 μg. Samples were processed on GeneChips (Affymetrix, Santa Clara, Calif.). In order to check the quality of each sample, 5 μg of labeled cRNA was run on Test2-arrays. Actual experiments were performed on Murine Genome U74Av2 arrays, containing probe sets interrogating approximately 12,000 full-length mouse genes and EST clusters from the UniGene database (Build 74). Hybridization was performed using 15 μg CRNA for 16 h at 45° C. under continuous rotation. Arrays were stained in Affymetrix Fluidics stations using Streptavidin/Phycoerythrin (SAPE) followed by staining with anti-streptavidin antibody and a second SAPE staining. Subsequently arrays were scanned with a HP-Laserscanner and data were analyzed with the Microarray Suite Software (Affymetrix). No scaling or normalization was performed at this stage. Quality of the experiment was assessed based on the percentages present calls across all samples which was on average 47.06±2.45%. The cytoplasmic β-actin and GAPDH 5′/3′ ratios were 1.10±0.08 and 0.93±0.05 respectively.
Basically this alignment sets the average intensity of one array to the average measured across all arrays, compensating for array to array variations in hybridization, washing and staining, ultimately allowing a reasonable comparison between arrays. After alignment polished data were analyzed using weighted spectral mapping. Weighted spectral mapping is an unsupervised multivariate analysis method which includes double-centering of the data combined with a specialized visualization representing the two highest principle components. Even though double-centering removes the “size” component of the array data, this information is reintroduced in the visualization via the area of the symbols representing the size of the respective samples and genes. This method allows the reduction of a large microarray dataset and provides means to visually inspect and thereby identify clusters of genes and/or subjects in the data (7). A more detailed analysis was carried out using the OmniViz program. All records which were absent in all experiments were removed and all signals less than 20 were set to 20. Gene expression fold differences for CRH, R121919 and CRH+R121919 treatments were calculated at each timepoint. For those calculations signals at corresponding timepoints in DMSO treated samples were used to calculate ratios. […]

[3] = tested on: CRF1 mRNA; assay: CRF1 mRNA in AtT-20 cells exposed to CRF; type: cell-based, murine; conditions: AtT-20 cells exposed to 1 μM CRF
Experimental: as §1
Quantitative RT-PCR—Microarray data were confirmed using real time PCR analysis. First strand cDNA synthesis was performed on 0.5 μg total RNA using random hexamer primers and SuperscriptII RT (Invitrogen Life Technologies). Quantitative PCR was performed on a ABIPrism 7700 cycler (Applied Biosystems) using a Taqman PCR kit. […] A linear regression line calculated from the standard curves allowed the determination of transcript levels in RNA samples from the different time points.

[4] = molecular target: corticotropin-releasing hormone receptor 1 (CRH-R1), endogenous on murine AtT-20 cells (murine) (UniProt P35347); assay: cell-based or functional assay

Molecule: CCCN(CCC)c1cc(C)nc2c(-c3cnc(N(C)C)cc3C)c(C)nn12 [R121919]
- suppression of CRH-elicited c-fos transcription ([1]; 1 μM CRH in the presence of 1 μM R121919): almost completely suppressed
- suppression of CRH-induced transcriptional responses (microarray) ([2]; 1 μM CRH + 1 μM R121919): suppressed

Molecule: CRH: Corticotropin releasing hormone, a 41-amino acid polypeptide (Sigma)
- c-fos transcription (c-fos mRNA levels by RTq) ([1]; 1 μM CRH, levels already going down after 0.5 to 1 h): transient surge
- number of regulated genes (greater than 2-fold change in transcript levels at any one time point, relative to DMSO, differing from antagonist treatment) ([2]; 1 μM CRH, 0.5 to 24 h): 111 genes
- number of intermediate responders (responding after 1 to 2 hours of treatment) ([2]; 1 μM CRH, 1 to 2 hours): 32 genes
- number of early responders (2-fold change after 30 minutes treatment) ([2]; 1 μM CRH, 30 minutes): 26 genes
- number of late responders (response after 2 hours or more) ([2]; 1 μM CRH, 2 hours or more): 53 genes
- direction of regulation of all responder genes ([2]; after exposure to CRH): up regulated
- alterations in CRF1 mRNA [3]: not detect any alterations

Molecule: corticotropin-releasing hormone (CRH) (ligand)
- microarray gene expression in AtT-20 cells (greater than 2-fold change in transcript levels against DMSO) [4]: 111 genes
